Measurements from PMC10897327.

Key:
Test in all cases: native gel or EMSA; NativePAGE 3-12% Bis-Tris gel with Coomassie G-250, immunoblot for 52K; purified MBP-52K fusion proteins with or without TEV protease cleavage for 1 h at room temperature
[1] = target: MBP-52K fusion protein, wild type (MBP tag not removed) (human adenovirus type C5 (Ad5))
[2] = target: MBP-52K fusion protein, S28/75A (MBP tag not removed) (human adenovirus type C5 (Ad5))
[3] = target: recombinant 52K S28/75A released from MBP-52K by TEV protease (human adenovirus type C5 (Ad5))
[4] = target: recombinant WT 52K released from MBP-52K by TEV protease (human adenovirus type C5 (Ad5))
[5] = target: MBP-52K fusion protein, S28/75D (MBP tag not removed) (human adenovirus type C5 (Ad5))
[6] = target: recombinant 52K S28/75D released from MBP-52K by TEV protease (human adenovirus type C5 (Ad5))

Substance: MBP-52K fusion protein, wild type (MBP tag not removed) (natural protein)
- stoichiometry N [1]: 2

Substance: MBP-52K fusion protein, S28/75A (MBP tag not removed) (natural protein)
- stoichiometry N [2]: 2

Substance: recombinant 52K S28/75A released from MBP-52K by TEV protease (natural protein)
- stoichiometry N [3]: 2

Substance: recombinant WT 52K released from MBP-52K by TEV protease (natural protein)
- stoichiometry N [4]: 2

Substance: MBP-52K fusion protein, S28/75D (MBP tag not removed) (natural protein)
- stoichiometry N [5]: 2

Substance: recombinant 52K S28/75D released from MBP-52K by TEV protease (natural protein)
- stoichiometry N [6]: 2
